The text below walks through data of US20060053496A1 (UNIVERSITY OF NORTH CAROLINA AT CHAPEL HILL, published 2006).

This assay deals with T1, FLAG-tagged Monarch-1 (human, UniProt P59046 1-1061).
T1 construct: Expressed in transfected 293T cells and immunoprecipitated from lysate with anti-FLAG M2-agarose; also called FLAG-Monarch-1; Caterpiller 19.3; not shown: N-terminal FLAG tag added by PCR
T1 sequence: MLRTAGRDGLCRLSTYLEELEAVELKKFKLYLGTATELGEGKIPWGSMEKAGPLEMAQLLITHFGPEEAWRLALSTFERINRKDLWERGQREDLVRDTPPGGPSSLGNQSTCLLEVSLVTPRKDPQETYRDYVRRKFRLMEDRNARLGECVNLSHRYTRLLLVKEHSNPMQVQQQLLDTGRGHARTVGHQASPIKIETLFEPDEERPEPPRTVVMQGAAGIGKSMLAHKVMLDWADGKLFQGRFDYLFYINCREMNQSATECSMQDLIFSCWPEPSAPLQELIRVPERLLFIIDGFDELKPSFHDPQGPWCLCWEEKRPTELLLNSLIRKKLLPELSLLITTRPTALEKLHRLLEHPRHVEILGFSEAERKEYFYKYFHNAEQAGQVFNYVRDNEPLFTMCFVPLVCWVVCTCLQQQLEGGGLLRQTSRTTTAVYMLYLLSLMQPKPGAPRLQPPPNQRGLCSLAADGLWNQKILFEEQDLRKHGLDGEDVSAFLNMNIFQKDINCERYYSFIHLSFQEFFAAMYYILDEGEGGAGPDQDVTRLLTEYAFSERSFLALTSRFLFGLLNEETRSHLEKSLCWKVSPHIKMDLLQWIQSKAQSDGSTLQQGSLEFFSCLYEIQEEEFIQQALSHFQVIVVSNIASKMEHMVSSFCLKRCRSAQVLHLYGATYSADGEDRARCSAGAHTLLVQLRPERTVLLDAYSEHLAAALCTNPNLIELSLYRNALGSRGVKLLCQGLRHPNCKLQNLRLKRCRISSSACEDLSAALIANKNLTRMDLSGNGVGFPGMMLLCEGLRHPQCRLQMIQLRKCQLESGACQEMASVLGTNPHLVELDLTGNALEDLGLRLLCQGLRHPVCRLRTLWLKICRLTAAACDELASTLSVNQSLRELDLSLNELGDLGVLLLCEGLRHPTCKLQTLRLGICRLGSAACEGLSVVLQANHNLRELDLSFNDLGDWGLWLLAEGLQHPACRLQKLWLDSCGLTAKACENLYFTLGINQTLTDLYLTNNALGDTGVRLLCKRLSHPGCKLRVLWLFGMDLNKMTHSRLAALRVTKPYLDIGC
Briefly: co-immunoprecipitation from transfected 293T cells (anti-FLAG M2-agarose IP, anti-HA western blot). As to the method:
Transfections and Immunoprecipitations. 2.5 million 293T cells were seeded in 10-cm cell culture plates. Eighteen to twenty-four hours later, 3 μg of each of the indicated plasmids was transfected using FUGENE6™ (Roche, Indianapolis, Ind.) at a 3:1 FUGENE6™ to DNA ratio and the cells were incubated an additional 18 to 24 hours. Cells were lysed in 0.5% NP-40, 150 mM NaCl, 50 mM Tris pH 8.0, 160 mM EDTA, 50 mM NaF, 10 mM sodium phosphate supplemented with protease inhibitor cocktail (Roche, Indianapolis, Ind.). Nuclei were removed and the resulting supernatant was pre-cleared with mouse IgG-conjugated agarose (Sigma, St. Louis) for 1 hour. FLAG®-tagged proteins were subsequently immunoprecipitated overnight with 35 μl M2-agarose equilibrated in lysis buffer. Beads were washed four times in lysis buffer and proteins eluted in sample buffer (20% Glycerol, 4% SDS, 130 mM Tris pH 6.8, 20 mM DTT) for western blot analysis.
Monarch-1 Associates with TRAF6 but not MyD88 or IRAK1. In addition to the proteins identified by MALDI-MS, 293T cells were transfected with Monarch-1 cDNA and one of the following: HA-MyD88, HA-TRAF6, or HA-IRAK1. Twenty-four hours later the cells were lysed and Monarch-1-containing protein complexes were immunoprecipitated with anti-FLAG® M2-agarose beads overnight. […]
(In western blotting, separated proteins are transferred to a membrane and probed.)

B1: HA-IRAK1 (enzyme, human, UniProt P51617 1-712, looked up)
chain: MAGGPGPGEPAAPGAQHFLYEVPPWVMCRFYKVMDALEPADWCQFAALIVRDQTELRLCERSGQRTASVLWPWINRNARVADLVHILTHLQLLRARDIITAWHPPAPLPSPGTTAPRPSSIPAPAEAEAWSPRKLPSSASTFLSPAFPGSQTHSGPELGLVPSPASLWPPPPSPAPSSTKPGPESSVSLLQGARPFPFCWPLCEISRGTHNFSEELKIGEGGFGCVYRAVMRNTVYAVKRLKENADLEWTAVKQSFLTEVEQLSRFRHPNIVDFAGYCAQNGFYCLVYGFLPNGSLEDRLHCQTQACPPLSWPQRLDILLGTARAIQFLHQDSPSLIHGDIKSSNVLLDERLTPKLGDFGLARFSRFAGSSPSQSSMVARTQTVRGTLAYLPEEYIKTGRLAVDTDTFSFGVVVLETLAGQRAVKTHGARTKYLKDLVEEEAEEAGVALRSTQSTLQAGLAADAWAAPIAMQIYKKHLDPRPGPCPPELGLGLGQLACCCLHRRAKRRPPMTQVYERLEKLQAVVAGVPGHSEAASCIPPSPQENSYVSSTGRAHSGAAPWQPLAAPSGASAQAAEQLQRGPNQPVESDESLGGLSAALRSWHLTPSCPLDPAPLREAGCPQGDTAGESSWGSGPGSRPTAVEGLALGSSASSSSEPPQIIINPARQKMVQKLALYEDGALDSLQLLSSSSLPGLGLEQDRQGPEESDEFQS
notes: not shown: double 5' (N-terminal) HA tag
Turning to B1, the binding result is reported as “no binding”.
